Literature values, collected in paper PMC3288358 (ACS Chemical Biology, 2011).

Key:
hMc3R = hMc3R (Homo sapiens, UniProt P41968); details: read-out: Mc3R EC50; cAMP assay; data adapted from ref Wilczynski et al. ([34])
male Long-Evans rats = details: requires higher minimal doses for activation; ref [8]

Chain of hMc3R (P41968 whole entry): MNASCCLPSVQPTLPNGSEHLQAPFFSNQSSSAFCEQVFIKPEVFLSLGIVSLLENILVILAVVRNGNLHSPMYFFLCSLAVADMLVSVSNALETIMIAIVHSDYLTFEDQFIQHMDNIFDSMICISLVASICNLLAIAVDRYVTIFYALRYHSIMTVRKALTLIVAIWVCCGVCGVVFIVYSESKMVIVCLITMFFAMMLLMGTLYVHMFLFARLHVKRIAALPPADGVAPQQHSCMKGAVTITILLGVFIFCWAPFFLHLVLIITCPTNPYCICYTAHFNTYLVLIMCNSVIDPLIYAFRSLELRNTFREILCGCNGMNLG

Row | EC50 (hMc3R) [nM] | Substance | Long-term feeding response compared with AgRP (male Long-Evans rats)
1 | 8.9 ± 0.2 | AgRP(87-132): Truncated AgRP lacking the four residue N-terminal segment, N-terminal acetylated | 
2 |  | SHU9119 | long-term response similar to AgRP
